Experimental data taken from the nanobody polyreactivity screen of Harvey et al. (2022).

Assay: yeast display, Sf9 membrane polyspecificity reagent, FACS + sequencing; frameworks hold sequencing errors
How it was run: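 Galactose induction of a Saccharomyces cerevisiae BJ5465 synthetic nanobody display library ran 36–48 hours. The cells were then stained for 1 hour at 4 °C with 10% biotinylated, detergent-solubilized Sf9 membrane reagent, pulled down on streptavidin microbeads and FACS-sorted into low and high (top ~1%) gates on expression and reagent-binding fluorescence. Labels for polyreactivity follow the gate of origin.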

Sequence | polyreactivity (PSR sort gate)
QVQLVESGGGLVQAGGSLRLSCAASGSTFLANAMGWYRQAPGKERELVATISSGGSTNYADSVKGRFTISRDNAKNTVYLQMNSLKPEDTAVYYCAAEYWYAWQEYGYWGQGTQVTVSS | low polyreactivity
QVQLVESGGGLVQAGGSLRLSCAASGFSFGVYAMGWSRQAPGKERELVAAISTTVGSTYYADSVKGRFTISRDNAKNTVYLQMNSLKPEDTAVYYCAAEYTGYINYYIYEYWGQGTQVTVSS | low polyreactivity
QVQLVESGGGLVQAGGSLRLSCAASGFTFPYNAMGWYRPAPGTARELVAGISYGGGRTYYADSVKGRFTFSRDNAKNTVYLQMNSLKPEDTAVYYCARRPGAWKYVYTGDYWGQGTQVTVSS | high polyreactivity
QVQLVESGGGLVQAGGSLRLSCAASGRTSTIYTMGWYRQAPGKEREIVASISAGAGTYYADSVKGRFTISRDNAKNTVYLQLNSLKPEDTAVYYCNASVYWRSTRRHQMDYWGQGTQVTVSS | high polyreactivity
QVQLVESGGGLVQAGGSLRLSCAASGRTFGGYAMGWYRQAPGKETQLVATITSGGSTYYADSVKGRFTISRDNAKNTVYLQMTSLKPEDTAVYYCAADTYFETSTRAIPSNDYWGQGTQVTVSS | low polyreactivity
QVQLVESGGGLVQAGGSLRLSCADSASIFRNAMGWYRQAPRKERELVAGIRWSDGSTNYADSVKGRFTISRDNANITVYLQMNSLKPEDTAVYYCAKGAYFARRMYYWGQGTQVTVSS | low polyreactivity
QVQLVESGGGLVQAGGSLRLSCAASGSIFGRYAMGWYRQAPGKERELVAVITSGGSTNYADSVKGRFTISRDKAKNTVYLQMNSLKPEDTAVYYCAVRPYELHRLADQPGGDDYWGQGTQVTVSS | low polyreactivity
QVQLVVSGPGLFQAGGSLRISCAPSGFIFYNYAMGWYRQAPGKERELVAAISRSGGSTYYADSVKGRFTISRDNAKNTVYLQMNSLKPEDTAVYYCKVGYGRGSTIGGYDYWGQGTQVTVSS | high polyreactivity
QVQLVESGGGLVQAGGSLRLSCAASGSTFDGYVMGWYRQAPGKEREFVAAISWSGGSTYYADSVKGRFTISRDNAKYTVYLQMNRLKREDTAVYYCAARVRRQHGYWGQGTQVTVST | high polyreactivity
QVQLVESGGRLVQAGGSLRLSCAASGRTFRGYAMGWYRQAPGKEREWVAAISSGGSTYYADSVKGRFTISRDNAKNTVYFQMNSLKPEDTAVSYCDRAVGNYRTLEFDYWGQGTQVTVSS | low polyreactivity
QVQLVESGGRLVQAGGSLRLSCAASGSTIYPNAMGWSRQAPGKERELVAAISRGTRTKYADSVKGRFTISRDNAKNTVYVQMNSLKPEDTAVYYCAADTGTGLDWGQGTQGTVSS | high polyreactivity
QVQLVESGGGLVQAGGSLRLSCAASGFIFTGNAMGWYRQAPGKERELVAAISKRGGRTYYADSVKGRFTISRDNAKNTVYLQMNSLKPEDTAVYYCAAVGYAYTYAEYYYWGQGTQVTVSS | high polyreactivity
QVQLVESGGGLVQAGGSLRLSCAASGLIFVSYAMGWYRQEPGKERELVASITDSDSSTYYADSVKGRFTISRDNAKNTVYLQMNSLKPEDTAVYSCATGGRTEIWYPTLDYWGQGTQVTVSS | low polyreactivity
QVQLVESGGGLVQAGGSLRLSCAASGLIVGGYTMGWYRQAPGKERELVAAIDSGGSTKYADSVKGRFTISRDNAKNTVYLQMNSLKPEDTAVYYCAARDYYAWRYRYHHEVSEFDYWGQGTQVTVSS | low polyreactivity
QVKRVESGGGLVHAGGSLRLSCPASGRTVAKYAMGGYRQEPGKARELVAAITSSGGITYYAESVQGRYTISRDNAKNIVYLQMNSLKREDTAFYYCAVKTFQVGTFRRYYYWGQGTQVTVSS | high polyreactivity
QVQLVESGGGLVQAGGSLRLSCAASGFIFYKYAMGWYRQAPGKERELVAAITASGGSTYYADSVKGRFTISRDNEKITVYLQMNSLKPEDTEVYFCAASRLFGFDYWGQGTQVTVSS | high polyreactivity
QVQLVESGGGLVQAGGSLRLSCAASGSTFLNYAMGWYRQAPGKERELVAAISGSTTRTYYADSVKGRFTISRDNAKNTVYLQMNSLKPEDTAVYYCARYSLYTGYRRYPLDYDYWGQGTQVTVSS | high polyreactivity
QVQLEESGGGLVQAGGSLRLSCAASGSTVGIYAMGWYRPAPGKERELVAAISSRGSTYYADSVKGRFTISRDNAKNTVYLQMNSLKPEDTAVYYCAAGYAWYNYWGQGTQVTVSS | high polyreactivity
QVQLVESGGGLVQAGGSLRLSCAASGSIFSSYAMGWYRQAPGKEREMVAAITYSGGRTYYADSVKGRFTISRDNAKNTVYLQMNSLKPEDTAVYYCNARKYVGFWSRYDYWGQGTQVTVSS | high polyreactivity
QVQLVESGGGLVQAGGSLRLSCAASGSTLSHYAMGWYRQAPGKERELVAAINSNGGSTYYADSVKGRFTISRDNAKNTVYLQMNSLKPEDTAVYYCNTYFRYFSFYGRPFDYWGQGTQVTVSS | high polyreactivity
QVQLVESGGGLVQAGGSLRLSCAASGIIFASNAMGWYRQAPGKERELVAAISRSGGRTYYADSVKGRFTISRDNAKNTVYLQMNSLKPEDTAVYYCNAVQFGATAYDYWGQGTQVTVSS | high polyreactivity
QVQLVESGGGLVQAGGSLRLSCAASGRIFTGYTMGWYRQAPGKERELVAGITGSSGSTYYADSVKGRFTISRDNAKNTVYLQMNSLKPEDTAVYYCAAGRRYRSVGYGYWGQGTQVTVSS | high polyreactivity

Sequence | polyreactivity (PSR sort gate)
QVKLVESGGCLVQAGGSLRLSCAASGRTIGYYGMGWYRQAPGKARELVAAITGSGGSTYYADSVKGRFTISRDNSKNTVYLQMNILIPEDTAVYYCAATYLSRWTLYDYWGQGTQVTVSS | high polyreactivity
QVQLVESGGGLVQAGGSLRLSCAASGITFRYYAMGWYRQGPGKERELVASITSGGVNTYYADSVKGRFTISRDNANNTDYLQMNSLKPEDTAVFYCATRFSYSALGGYDYWGQGTQVTVSS | low polyreactivity
QVHLVESCGALVHAGGSLRLSCAASGSIFRGNAMGWYRQAPWKERELVAAITGSGGNTYYADSVKGRFTISRDNAKNTVYLQMNSLKPEDTAVYYCNADGWNTYIGPRRYSYDYWGQGTQVTISS | low polyreactivity
QVQLVESGVGLVQAGGSLRLSCAASGRIFVKYAMGWYRQAPGQEREFVAAITQGGGRTFYADSVKGRFTSSRDNAKNTVYLQMNSLKPEDTAVYYCAATGRGYGRRYFVVYRYDYWGQGTQVTVSS | high polyreactivity
QVQLVESGGGLVQAGGSLRLSCAASGRIFRYYAMGWYRQAPGKERELVAAINTSTGSTYYADSVKGRFTISRDNAKNTVYLQMNSLKPEDTAVYYCATGWHYYRSLRGGLAWPGGYWGQGTQVTVSS | high polyreactivity
QVQLVESGGGLVQAGGSLRLSCAASGFIFRRYAMGWYRQAPGKERELVAAIRSDGSTNYADSVKGRFTISRDNAKNTVYLQMNSLKPEDTAVYDCAATYYSYTWFSQYYYWGQGTQVTVSS | high polyreactivity
QVQLVESGGGLVQAGGSLRLSCAASGSIFYYYVMGWYRQAPGKERELVAAIRSSGTSTYYADSVKGRFTISRDNAKNTVYLQMNSLKPEDTAVYYCNRARSSSRYDYWGQGTQVTVSS | low polyreactivity
QVQLVESGGGLVQAGGSLRLSCAASGFTFNYNAMGWYRQAPGKERELVAAISRSGGRTYYADSVKGRFTISRDNAKNTVYLQMNSLKPEDTAVYYCAADSRTNGYDYWGQGTQVTVSS | high polyreactivity
QVQLVESGRGLVQAGGSLRLSCAASGIIFYENAMGWYRQAPGKERELVADITQSGGSTYYADSVKGRFTISRDNAKNTVYLQMNSLKPEDTAVYYCAADGYDPYGGLYDYWGQGTQVTVSS | low polyreactivity
QVQLVESGGGLVQAGGSLRLSCAASGSIAGNAMGWYRQAPGKERELVATITRRGGRTYYADSVKGRFTISRDNAKNTVYLQMNSLKPEDTAVYYCNKVSYARGYDYWGQGTQVTVSS | high polyreactivity
QVQLVESGGGLVQAGGSLRLSCAASGFTFSAYTMGWYRQAPGKESELVAAINWSGANTYYADSVKGRFTISRDNAKNTVYLQMNSLKPEDTAVYFCNAEDDYTYDRSFGGYKYDYWGQGTQVTVSS | low polyreactivity
QVQLVESGGGLVQAGGSLRLSCAASGSTFYRNAMGWYRQAPGKERELVAAISGSGARTYYADSVKGRFTISRDNAKNTVYLQMNSLKPEDTAVYYCNAKRYFRNHFRTGGMYYWGQGTQVTVSS | high polyreactivity
QVQLVESGGGLVQAGGSLRLSCAASGFISRYAMGLYRQAPGKERELVAAINRSGGRTYYADSVKGRFTISRDNAKNTVYLQMNSLKPEDTAVYYCAAERSSSYTYDFWGQGTQVTVSS | high polyreactivity
QVQLVESGGGLVQAGGSLRLSCAASGNIFWRYAMGWYRQAPGKERELVAAISRRGGSTYYADSVKGRFTISRDNAKNTVYLQMNSLKPEDTAVYYCAASHSTWFSDPYGYWGQGTQVTVSS | low polyreactivity
QVQLVESGGGLVQAGGSLRLSCAASGRTFKHYAMGGYRQAPGKERELVAAITSGGSTYYADSVKGRFTISRDNAKNTVYLQMNSLKPEDTAVYYCNKESYFDTYRRYDSWGQGTQVTVSS | low polyreactivity
QLQLVESGGGLVQAGGSLRLSCAASGSIFAIYAMGWYRQAPGKERELVAAISDGGGTNYADSVKGRFTISRDNAKNTVYLQMNSLKPEDTAVYYCAADLGWSTYVSNGPKGYDHWGQGTQVTVSS | low polyreactivity
QVQLVESGGGLVQAGGSLRLSCAASGRTFPRYAMGWYRQAPGKERELVAAISVRAGITYYADSVKGRFTISRDNAKNTVYLQMKSLKPEDTADYYCAKDHWTSSYDEGDYWGQGTQVTVSS | low polyreactivity
QVQLVESGGGLVQAGGSLRLSCAASGSTFYPYAMGWYRQAPGKERELVAVISWRGGSTYYADSVKGRFTISRDNAKNTVYLQMNSLKPEDTAVYYCGASGYRGYEYWGQGTQVTVSS | high polyreactivity
QVQLVESGGGLVQAGGSLRLSCAASGRTFLTNAMGWYRQAPGKERELVAAITSSGGNTYYADSVKGRFTISRDNAKNTVYLQMNSLKPEDTAVYYCAAPGYVWYGGRWVYRYYYWGQGTQVTVSS | high polyreactivity
QVQLVESVGGLVQAGVSLRLSCAASGITFYGYAMGWYRQAPGKERELVATSTSGGSTYYADSVKGRFTISRDNAKNTVYLQMNSLKPVDTAVYYCAASRWYRRTRYGYWGQGTQLTVSS | high polyreactivity
QVQLVESGGGLVQAGCSLRLSCAASGITVYDYDMGWYRQAPGKERELVAAITWNGGSTYYADSVKGRFTISRDNAKNTVYLQMNSLKPEDTAVYYCAAESYYIYDYWGQGTQVTVSS | high polyreactivity
